Experimental data as given in PMC8100066 (2021).

Molecular target: mouse CSL (amino acid residues 53-474), conserved and structurally ordered core domain (mouse, UniProt P31266 53-474)
Assay: ITC

mouse CSL (amino acid residues 53-474), conserved and structurally ordered core domain, sequence (P31266 53-474): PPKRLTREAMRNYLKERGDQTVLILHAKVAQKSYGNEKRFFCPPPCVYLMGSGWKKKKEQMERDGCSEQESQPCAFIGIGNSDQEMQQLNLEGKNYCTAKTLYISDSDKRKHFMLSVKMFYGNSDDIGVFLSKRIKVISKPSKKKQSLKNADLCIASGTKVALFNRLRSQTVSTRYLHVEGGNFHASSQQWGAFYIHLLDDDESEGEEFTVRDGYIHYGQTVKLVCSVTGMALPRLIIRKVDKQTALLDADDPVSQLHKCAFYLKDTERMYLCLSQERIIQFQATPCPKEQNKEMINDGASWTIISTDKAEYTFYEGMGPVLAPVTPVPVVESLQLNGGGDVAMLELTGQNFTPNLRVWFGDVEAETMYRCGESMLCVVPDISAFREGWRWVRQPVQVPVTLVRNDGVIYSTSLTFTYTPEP

Ka | Binder
5.49e+06 M⁻¹ | ARRKREHSTLWFPEGFKV [human NOTCH3 RAM peptide (residues 1665-1682), nonphosphorylated]
4.63e+07 M⁻¹ | VLLSRKRRRQHGQLWFPEGFKVSEASKK [human NOTCH1 RAM peptide (residues 1754-1781)]
